Results published in PMC10106851, “Wheat yellow mosaic virus NIb targets TaVTC2 to elicit broad‐spectrum pathogen resistance in wheat” (Plant Biotechnology Journal, 2023).

Experiments:
[1] = target: TaVTC2-GST (wheat (Triticum aestivum)); experiment: ITC; ITC 200 Micro Calorimeter, 20 °C; 10 mM Tris-HCl, 150 mM sodium chloride, pH 7.5; one-set-of-sites model; which protein was in the syringe is not given
[2] = target: T1, TaVTC2 (Triticum aestivum, UniProt A0A650C200); experiment: microscale thermophoresis; type: binding
T1 construct: gene GGP2-D; full-length CDS; recombinant GST fusion (TaVTC2-GST) from E. coli BL21
T1 sequence (A0A650C200 1-431): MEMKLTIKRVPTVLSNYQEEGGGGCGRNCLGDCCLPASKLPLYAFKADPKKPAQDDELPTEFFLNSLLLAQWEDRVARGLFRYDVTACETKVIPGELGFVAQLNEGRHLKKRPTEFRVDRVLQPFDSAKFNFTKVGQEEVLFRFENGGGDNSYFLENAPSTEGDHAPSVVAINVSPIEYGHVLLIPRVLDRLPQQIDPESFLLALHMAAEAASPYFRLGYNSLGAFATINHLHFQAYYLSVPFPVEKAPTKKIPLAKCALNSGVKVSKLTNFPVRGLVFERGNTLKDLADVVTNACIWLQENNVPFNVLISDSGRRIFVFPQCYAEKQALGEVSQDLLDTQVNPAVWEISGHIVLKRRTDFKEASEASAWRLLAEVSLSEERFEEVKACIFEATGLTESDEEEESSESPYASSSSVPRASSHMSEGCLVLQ

[3] = substrate: Nc1nc2c(ncn2[C@@H]2O[C@H](COP(=O)(O)OP(=O)(O)O[C@H]3O[C@@H](CO)[C@@H](O)[C@@H](O)[C@@H]3O)[C@@H](O)[C@H]2O)c(=O)[nH]1; experiment: purified protein; type: biochemical, Triticum aestivum; settings: 5 mM K2HPO4, 2.5 mM MgCl2, 50 mM KCl, 50 mM HEPES pH 6.9, 20 °C
[4] = target: T2, NIb-His (wheat yellow mosaic virus (WYMV)); experiment: ITC
T2 chain: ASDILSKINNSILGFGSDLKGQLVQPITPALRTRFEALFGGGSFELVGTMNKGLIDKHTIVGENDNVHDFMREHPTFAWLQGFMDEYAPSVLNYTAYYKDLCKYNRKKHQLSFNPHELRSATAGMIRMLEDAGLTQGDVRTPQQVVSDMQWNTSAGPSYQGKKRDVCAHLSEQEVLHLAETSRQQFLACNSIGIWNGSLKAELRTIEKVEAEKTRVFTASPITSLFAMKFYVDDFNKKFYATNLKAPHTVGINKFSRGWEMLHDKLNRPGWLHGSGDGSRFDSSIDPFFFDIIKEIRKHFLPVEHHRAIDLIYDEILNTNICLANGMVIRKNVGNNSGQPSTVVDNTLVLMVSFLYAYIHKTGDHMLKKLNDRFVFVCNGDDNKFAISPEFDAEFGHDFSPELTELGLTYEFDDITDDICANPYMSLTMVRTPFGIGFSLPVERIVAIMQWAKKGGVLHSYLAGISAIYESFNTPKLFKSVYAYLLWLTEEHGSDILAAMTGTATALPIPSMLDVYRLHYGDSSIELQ

## NIb-His (natural protein)
[1]
  Ka: 167000 M⁻¹

## Nc1nc2c(ncn2[C@@H]2O[C@H](COP(=O)(O)OP(=O)(O)O[C@H]3O[C@@H](CO)[C@@H](O)[C@@H](O)[C@@H]3O)[C@@H](O)[C@H]2O)c(=O)[nH]1 [GDP-L-galactose]
[2]
  Kd: 2.7 µM

B1: TaVTC2-GST (enzyme)
chain: MEMKLTIKRVPTVLSNYQEEGGGGCGRNCLGDCCLPASKLPLYAFKADPKKPAQDDELPTEFFLNSLLLAQWEDRVARGLFRYDVTACETKVIPGELGFVAQLNEGRHLKKRPTEFRVDRVLQPFDSAKFNFTKVGQEEVLFRFENGGGDNSYFLENAPSTEGDHAPSVVAINVSPIEYGHVLLIPRVLDRLPQQIDPESFLLALHMAAEAASPYFRLGYNSLGAFATINHLHFQAYYLSVPFPVEKAPTKKIPLAKCALNSGVKVSKLTNFPVRGLVFERGNTLKDLADVVTNACIWLQENNVPFNVLISDSGRRIFVFPQCYAEKQALGEVSQDLLDTQVNPAVWEISGHIVLKRRTDFKEASEASAWRLLAEVSLSEERFEEVKACIFEATGLTESDEEEESSESPYASSSSVPRASSHMSEGCLVLQ
[3]
  Km: 78 ± 22.9 µM
[4]
  Kd: 5.98 µM
